Residue numbers refer to the chain shown, from its start.
B1: FL-7 (scFv)
scFv: QVTLKESGPTLVKPTETLTLTCTVSGFSLNNARMGVSWIRQPPGKALEWLAHIFSNDEKSYSTSLKNRLTISKDSSKTQVVLTMTNVDPVDTATYYCARIVGYGTGWFGYFDYWGQGTQVTVSSGGGGSGGGGSGGGGSDIQMTQSPSSLSASVGDRVTITCRASQDIRTDLAWYQQKPGKAPKRLIYAASSLQSGVPSRFSGSGSGTEFTLTISSLQPEDFATYYCLQHNRYPLTFGGGTKVDIK
B2: FL-6 (scFv)
scFv: QVTLKESGPTLVKPTETLTLTCTLSGFSLNNARMAVSWIRQPPGKTLEWLAHIFSNDEKSYSPSLKSRLTISKDTSKSQVVLTMTNMDPEDTATYYCARIVGYGTGWYGFFDYWGQGILVTVSSGGGGSGGGGSGGGGSDIQMTQSPSSLSASVGDRVTITCRASQGIRNDLGWFQQKPGKAPKRLIYAASVLQSGVPSRFSGSGSGTEFTLTISSLQPEDFATYYCLQHNSYPLTFGGGTKVDIK
B3: FL-9 (scFv)
scFv: QVTLKESGPTLVKPTETLTLTCTVSGFSLSNARMGVSWIRQPPGKALEWLAHIFSNDEKSYSTSLKSRLTISKDTSKSQVVLTMTNMDPVDTATYYCARIPGYGGNFYYHYYGMDVWGQGTTVTVSSGGGGSGGGGSGGGGSDIQMTQSPSSLSASVGDRVTITCRASQGIRNDLAWYQQKPGKAPKRLIYAASTVQSGVPSRFSGSGSGTEFALTISSLQPEDFATYYCLQHNSFPWTFGQGTKVDIK
B4: FL-61 (scFv)
scFv: QVQLVESGGGVVQPGRSLRLSCAASGFTFSSYGMHWVRQAPGKGLEWVAVISYDGSNEFYADSVKGRFTISRDNSKNTLYLQMNSLRAEDTAVYYCARGGEITMVRGVIGYYYYGMDVWGQGTTVTVSSGGGGSGGGGSGGGGSDIQMTQSPSSLSASVGDRVTITCRASQSISSYLNWYQQKPGKAPKLLIYAASSLQSGVPSRFSGSGSGTEFTLTISSLQPEDFATYYCLQHNSYPLTFGGGTKVEIK
B5: FL-64 (scFv)
scFv: B4 scFv with D161N, E249D
B6: FL-63 (scFv)
scFv: B4 scFv with A169T, E249D
B7: FL-2 (scFv)
scFv: QVTLKESGPVLVKPTETLTLTCTVSGFSLRNARMGVSWIRQPPGKALEWLAHIFSNDEKTYSTSLKSRLTISRDTSKGQVVLTMTKMDPVDTATYYCARIPYYGSGSHNYGMDVWGQGTTVTVSSGGGGSGGGGSGGGGSDIQMTQSPSSLSASVGDRVTITCRASQDIRNDFGWYQQKPGKAPQRLLYAASTLQSGVPSRFSGSGSGTEFTLTISSLQPEDFATYYCLQYNTYPWTFGQGTKVEIK
B8: FL-5 (scFv)
scFv: QVTLKESGPMLVKPTETLTLTCTFSGFSLRNARMGVSWIRQPPGKALEWLAHIFWNDEKSYSTSLKSRLTISKDTSKSQVVLTMTNMDPVDTATYYCARIPYYGSGSYNYGMDVWGQGTTVTVSSGGGGSGGGGSGGGGSDIQMTQSPSSLSASVGDRVTITCRASQGIRNDLGWYQQKPGKAPKRLIYAASSLQSGVPSRFSGSGSGTEFTLTISSLQPEDFATYYCLQHNTYPLTFGGGTKVDIK
B9: FL-59 (scFv)
scFv: QVTLKESGPMLVKPTETLTLTCTVSGFSLRNVRMGVSWIRQPPGKALEWLAHIFSNDEKSYSTSLKSRLTISKDTSKSQVVLTLTNMDPVDTATYFCARMPEYSSGWSGAFDIWGQGTMVTVSSGGGGSGGGGSGGGGSDIQMTQSPSSLSASVGDRVTITCRASQDIRDDLGWYQQKPGNAPKRLIYGASTLQSGVPSRFSGSGSGTEFTLTISSLQPEDFATYYCLQHNSYPLTFGGGTRLEIK
B10: FL-10 (scFv)
scFv: B9 scFv with M10V, L29F, V32A, R242K, L243V, E244D
B11: FL-1 (scFv)
scFv: QVTLKESGPVLVKPTETLTLTCTVSGFSLINARMGVSWIRQPPGKALEWLAHIFSNAEKSYRTSLKSRLTISKDTSKSQVVLTMTNMDPVDTATYYCARIPGYGGNGDYHYYGMDVWGQGTTVTVSSGGGGSGGGGSGGGGSDIQMTQSPSSLSASLGDRVTITCRASQGIRNDLGWYQQKPGKAPKRLIYASSTLQSGVPSRFSGSGSGTEFTLTISSLQPEDFATYYCLQHNNFPWTFGQGTKVEIK
B12: FL-3 (scFv)
scFv: QVTLKESGPALVKPTETLTLTCTVSGFSLSNARMAVSWIRQPPGKALEWLAHIFSNGEKSYSTSLKSRLTISKDTSKTQVVLTMTNTDPVDTATYFCARIVGYSDWLLPFDHWGQGIMVTVSSGGGGSGGGGSGGGGSDIQMTQSPSSLSASVGDRVTITCRASQNINRFLNWYQQKPGKAPKLLIYAASSLQSGVPSRFSGSGSGTDFTLTISSLQPEDFATYYCLQHNSYPWTFGQGTKVDIK
B13: FL-60 (scFv)
scFv: QVTLKESGPALVKPTQTLTLTCTFSGFSLSNARMGVSWIRQPPGKALEWLAHIFSNDEKSYSTSLKSRLTISKDTSKRQVVLTMTNMDPVDTATYYCARMVGYGSGWYAYFDYWGQGTLVTVSSGGGGSGGGGSGGGGSDIVMTQTPLSLSVTPGQPASISCRSSQSLLHSNGYNYLYWYLQKPGQPPQLLIYEVSNRFSGVPDRFSGSGSGTDFTLKISRVEAEDVGVYYCMQALQTPLTFGGGTKVEIK
B14: FL-8 (scFv)
scFv: QVTLKESGPALVKPTETLTLTCTVSGFSLSYARMGVSWIRQPPGKALEWLAQIFSNDEKSYSTSLKSRLTISKGTSNSQVVLTMTNMDPEDTATYYCARIVGYGTGWYGFFDYWGQGILVTVSSGGGGSGGGGSGGGGSDIQMTQSPSSLSASVGDRVTITCRASQGIRNDLGWYQQKPGKAPKRLIYAASSLQSGVPSRFSGSGSGTEFTLTISSLQPEDFATYYCLQHNSYPLTFGGGTKVDIK
B15: FL-12 (scFv)
scFv: B14 scFv with Y31N, Q52N, N77K, T105S, F110Y, I118T, K184Q, D244E
B16: FL-62 (scFv)
scFv: QVQLVESGGGVVQPGRSLRLSCAASGFTFSSYGMHWVRQAPGKGLEWVAVISYDGSNEFYADSVKGRFTISRDNSKNTLYLQMNSLRAEDTAVYYCARGGEITMVRGVIGYYYYGMDVWGQGTTVTVSSGGGGSGGGGSGGGGSEIVMTQSPATLSVSPGERATLSCRASQGVRNNLVWYQQKPGQAPRLLIYGASTRATGIPARFSGSGSGTEFTLTISSLQSEDFATYYCLQHNSYPLTFGGGTKVEIK
B17: FL-16 (scFv)
scFv: QVTLKESGPVLVKPTETLTLTCTVSGFSLRNARMAVSWIRQPPGKTLEWLAHIFSNDEKSYSTSLKSRLTISKDTSKSQVVLTMTNMDPVDTATYYCARIVGYGSGWYGYFDYWGQGTLVTVSSGGGGSGGGGSGGGGSDIQMTQSPSSVSASVGDRVTITCRASQDIRYDLAWYQQKPGKAPKRLIYAASSLQSGVPSRFSGSGSGTEFTLTISSLQPEDFATYYCLQHNFYPLTFGGGTKVEIK
B18: FL-4 (scFv)
scFv: QVTLKESGPALVKPTETLTLTCTLSGFSLNNAKMGVSWIRQPPGKALEWLAHIFSNDEKSYSTSLKSRLTISKDTSKGQVVLTMTNMDPVDTATYYCARIVGYGSGWYGYFDYWGQGTLVTVSSGGGGSGGGGSGGGGSDIQMTQSPSSLSASVGDRVTITCRASQDIRDDLGWYQQKPGNAPKRLIYGASTLQSGVPSRFSGSGSGTEFTLTISSLQPEDFATYYCLQHNSYPLTFGGGTKVDIK
B19: FL-15 (scFv)
scFv: B18 scFv with K33R, G35A, A46T, R169G, D170N, N181K, G189A, T192S, D244E
B20: FL-14 (scFv)
scFv: B18 scFv with K33R, G35A, A46T, D170N, N181K, G189A, D244E
B21: FL-11 (scFv)
scFv: B18 scFv with A10V, H52Q, D57G, A98S, D167G, D170N, N181K, D244E
B22: FL-17 (scFv)
scFv: QVTLKESGPTLVKPTETLTLTCTVSGFSLSNARMGVSWIRQPPGKALEWLANIFSNDEKSYSTSLKSRLTISKGTSKSQVVLTMTNVNPVDTGTYYCARIVGYGSGWYGYFDYWGQGTLVTVSSGGGGSGGGGSGGGGSDIQMTQSPSSLSASVGDRVTITCRASQDIRNDLGWYQQKPGKAPKRLIYATSIRQSGVPSRFTGSGSGTEFTLTISGLQPEDFATYFCLQHNSFPLTFGGGTKVEIK
B23: FL-13 (scFv)
scFv: QVTLKESGPTLVKPTETLTLTCTLSGFSLNNARMGVSWIRQPPGKALEWLAHIFSNDEKSYSTSLKNRLTISKDSSKTQVVLTMTNVDPVDTATYYCARIVGYGSGWYGFFDYWGQGTLVTVSSGGGGSGGGGSGGGGSDIQMTQSPSSLSASVGDRVTITCRASQGIRNDLGWYQQKPGKAPKRLIYAASTLQSGVPSRFSGSGSGTEFTLTISSLQPEDFATYYCLQHNSYPLTFGGGTKVEIK

Biological target: human FLT3 on transfected CHO cells (human) (UniProt P36888)
Assay: FACS, scFv on CHO-human FLT3 cells pre-incubated with FLT3 ligand (competitor)

median [+ligand]/median [w/o ligand]*100 [%] | Binder
> 75 | B1
> 75 | B2
> 75 | B3
> 75 | B4
> 75 | B5
> 75 | B6
> 75 | B7
> 75 | B8
> 75 | B9
> 75 | B10
> 75 | B11
> 75 | B12
> 75 | B13
> 75 | B14
> 75 | B15
> 75 | B16
> 75 | B17
> 75 | B18
> 75 | B19
> 75 | B20
> 75 | B21
> 75 | B22
> 75 | B23
